The experiment deals with gastrin-releasing peptide receptor (GRPR) with a C-terminal NLuc tag (human) (UniProt P30550). Nature of the experiment: FRET or BRET. (In general: In BRET a luciferase serves as donor, and the signal depends on an acceptor being close.)
Sequence of UniProt P30550 (P30550 whole entry): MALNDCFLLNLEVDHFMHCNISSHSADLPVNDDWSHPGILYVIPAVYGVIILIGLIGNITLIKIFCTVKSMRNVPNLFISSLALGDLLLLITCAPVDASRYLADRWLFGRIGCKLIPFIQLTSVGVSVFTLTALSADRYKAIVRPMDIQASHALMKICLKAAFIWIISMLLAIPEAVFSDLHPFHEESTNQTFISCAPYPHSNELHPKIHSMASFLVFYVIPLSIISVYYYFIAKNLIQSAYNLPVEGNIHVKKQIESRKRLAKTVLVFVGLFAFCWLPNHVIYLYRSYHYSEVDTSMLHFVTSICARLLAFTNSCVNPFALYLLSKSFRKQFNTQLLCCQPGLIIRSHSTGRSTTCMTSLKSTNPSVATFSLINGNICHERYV

Regarding venus-mGq (engineered mini Gαq probe), the efficacy of miniGq recruitment with AG-2-BBN-1 (% of AMBA) turned out to be 57%.

These data come from paper PMC8640787.
